# T1: full-length rat Adrenodoxin (Adx), wild type (rat, UniProt P24483 65-188)
# T1 sequence (looked up): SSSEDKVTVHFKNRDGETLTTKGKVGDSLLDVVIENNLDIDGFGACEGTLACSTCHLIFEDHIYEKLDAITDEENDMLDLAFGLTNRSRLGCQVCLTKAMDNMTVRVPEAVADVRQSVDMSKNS
# B1: rat CYP24A1 (cytochrome P450 24A1), S57D, without the 32 residue leader sequence (enzyme, UniProt Q09128 33-514, looked up)
# chain: SASRAPKEVPLCPLMTDGETRNVTDLPGPTNWPLLGSLLEIFWKGGLKKQHDTLAEYHKKYGQIFRMKLGSFDSVHLGSPSLLEALYRTESAHPQRLEIKPWKAYRDHRNEAYGLMILEGQEWQRVRSAFQKKLMKPVEIMKLDKKINEVLADFLERMDELCDERGRIPDLYSELNKWSFESICLVLYEKRFGLLQKETEEEALTFITAIKTMMSTFGKMMVTPVELHKRLNTKVWQAHTLAWDTIFKSVKPCIDNRLQRYSQQPGADFLCDIYQQDHLSKKELYAAVTELQLAAVETTANSLMWILYNLSRNPQAQRRLLQEVQSVLPDNQTPRAEDLRNMPYLKACLKESMRLTPSVPFTTRTLDKPTVLGEYALPKGTVLTLNTQVLGSSEDNFEDSHKFRPERWLQKEKKINPFAHLPFGIGKRMCIGRRLAELQLHLALCWIIQKYDIVATDNEPVEMLHLGILVPSRELPIAFRPR
# What was measured:
# [1] = molecular target: B1; assay: NMR titration
# [2] = molecular target: T1, full-length rat Adrenodoxin (Adx), wild …; assay: cross-linking
binding result [1],stoichiometry N [2],Binder
binds,–,"rat Adrenodoxin L80Q (natural protein, UniProt P24483 65-188, looked up) SSSEDKVTVHFKNRDGETLTTKGKVGDSLLDVVIENNLDIDGFGACEGTLACSTCHLIFEDHIYEKLDAITDEENDMLDQAFGLTNRSRLGCQVCLTKAMDNMTVRVPEAVADVRQSVDMSKNS"
–,1,B1
